Assay results: US20170119913A1
Numbered stars: 1 amine (or outer) side, 2 acyl side, 3 side chain; on linkers, the order of the positions; unused ones are H or OH. Square brackets hold non-standard residues; d marks the D form. * marks the point of attachment. DOTA = O=C(O)CN1CCN(CC(=O)O)CCN(CC(=O)*)CCN(CC(=O)O)CC1; Ttds = O=C(CCC(=O)[*:2])NCCCOCCOCCOCCCN[*:1]; Glutaryl = O=C(CCCC(=O)[*:2])[*:1]; Tle = CC(C)(C)[C@H](N)C(=O)O; 1206 = not defined here; GABA = NCCCC(=O)O

Legend:
[1] = target: NTR1 on HT29 or NTR1-expressing HEK293 cells (UniProt P30989); experiment: cell-based or functional assay
[2] = target: neurotensin receptor 1 (NTR1), human, prepared from CHO cells recombinantly expressing the human receptor (human) (UniProt P30989); experiment: radioligand binding assay (Cerep 0109): displacement of 0.05 nM 125I-(Tyr3-neurotensin) from human NTR1 prepared from CHO cells
[3] = target: T1, delta 2 (DOP) (h), delta2 opioid receptor (human (printed as (h))), P41143; experiment: Cerep ExpresSProfile radioligand competition binding, reference compound (agonist radioligand)
T1 chain: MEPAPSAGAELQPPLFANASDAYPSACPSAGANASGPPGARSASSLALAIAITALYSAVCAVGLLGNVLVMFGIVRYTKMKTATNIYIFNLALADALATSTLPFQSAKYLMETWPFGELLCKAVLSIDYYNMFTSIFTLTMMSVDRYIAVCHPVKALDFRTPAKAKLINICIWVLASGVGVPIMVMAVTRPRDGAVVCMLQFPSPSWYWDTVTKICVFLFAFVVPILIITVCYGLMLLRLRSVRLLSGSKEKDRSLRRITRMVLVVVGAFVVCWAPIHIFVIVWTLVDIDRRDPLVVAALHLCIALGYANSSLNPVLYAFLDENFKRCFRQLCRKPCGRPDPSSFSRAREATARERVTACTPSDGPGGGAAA

Sequence of neurotensin receptor 1 (NTR1), human, prepared from CHO cells recombinantly expressing the human receptor (human) (P30989 whole entry): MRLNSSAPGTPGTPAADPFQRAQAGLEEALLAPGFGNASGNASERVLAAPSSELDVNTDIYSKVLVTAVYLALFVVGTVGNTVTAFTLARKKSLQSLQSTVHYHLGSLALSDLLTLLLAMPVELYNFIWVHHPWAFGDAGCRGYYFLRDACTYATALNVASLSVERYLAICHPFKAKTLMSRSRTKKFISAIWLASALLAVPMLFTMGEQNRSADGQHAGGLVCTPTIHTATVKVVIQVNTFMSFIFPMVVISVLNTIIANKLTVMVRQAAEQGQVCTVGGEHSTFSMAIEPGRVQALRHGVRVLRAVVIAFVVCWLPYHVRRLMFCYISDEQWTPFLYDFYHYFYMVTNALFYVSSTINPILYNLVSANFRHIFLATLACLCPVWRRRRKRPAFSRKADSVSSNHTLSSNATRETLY
Sequence of NTR1 on HT29 or NTR1-expressing HEK293 cells (P30989 whole entry): as above

Binder	Agonistic Effect EC50 [nM], functional Ca2+ mobilisation assay [1] [nM]	Antagonistic Effect IC50 [nM], functional Ca2+ mobilisation assay [1] [nM]	IC50 [2] [nM]	Ki [3] [nM]
{1206-Glutaryl}-[Ttds]K(DOTA)[Ttds][GABA]RRPY[Tle]L-OH (reading uncertain) [1206-Glutar-Ttds-Lys(DOTA)-Ttds-GABA-Arg-Arg-Pro-Tyr-Tle-Leu-OH (16)]	4	3.8	0.14	–
{1206-Glutaryl}-[Ttds]K(DOTA)[Ttds][GABA][dR]RPY[Tle]L-OH (reading uncertain) [1206-Glutar-Ttds-Lys(DOTA)-Ttds-GABA-arg-Arg-Pro-Tyr-Tle-Leu-OH (17)]	7	3.4	0.32	–
{1206-Glutaryl}-[Ttds][Ttds][Ttds]K(DOTA)[Ttds][Ttds][Ttds][GABA][dR]RPY[Tle]L-OH (reading uncertain) [1206-Glutar-Ttds3-Lys(DOTA)-Ttds3-GABA-arg-Arg-Pro-Tyr-Tle-Leu-OH (18)]	> 50000	3.8	2.7	–
YCGFC (modifications not checked) [DPDPE]	–	–	–	2
